From the supplement of paper PMC11246515
± gives the standard deviation of the averaged measurements.

Assay: total protein half-life in vivo (active degradation + dilution); higher = more stable protein
[1] = E. coli NCM3722 delta-clpP delta-lon delta-hslV, growth: N-lim chemostat, doubling time 6 h
[2] = E. coli NCM3722 delta-clpP, growth: N-lim chemostat, doubling time 6 h
[3] = E. coli NCM3722 delta-hslV, growth: N-lim chemostat, doubling time 6 h
[4] = E. coli NCM3722 delta-lon, growth: N-lim chemostat, doubling time 6 h
[5] = E. coli NCM3722 delta-smpB, growth: N-lim chemostat, doubling time 6 h
[6] = wild type E. coli NCM3722, growth: C-lim chemostat, doubling time 3 h
[7] = wild type E. coli NCM3722, growth: C-lim chemostat, doubling time 6 h
[8] = wild type E. coli NCM3722, growth: C-lim chemostat, doubling time 12 h
[9] = wild type E. coli NCM3722, growth: N-lim chemostat, doubling time 6 h
[10] = wild type E. coli NCM3722, growth: N-lim chemostat, doubling time 12 h
[11] = wild type E. coli NCM3722, growth: P-lim chemostat, doubling time 6 h
[12] = wild type E. coli NCM3722, growth: P-lim chemostat, doubling time 12 h

Row | Sequence | total protein half-life in vivo [1] [h] | total protein half-life in vivo [2] [h] | total protein half-life in vivo [3] [h] | total protein half-life in vivo [4] [h] | total protein half-life in vivo [5] [h] | total protein half-life in vivo [6] [h] | total protein half-life in vivo [7] [h] | total protein half-life in vivo [8] [h] | total protein half-life in vivo [9] [h] | total protein half-life in vivo [10] [h] | total protein half-life in vivo [11] [h] | total protein half-life in vivo [12] [h]
1 | MATLIRLFIHPVKSMRGIGLTHALADVSGLAFDRIFMITEPDGTFITARQFPQMVRFTPSPVHDGLHLTAPDGSSAYVRFADFATQDAPTEVWGTHFTARIAPDAINKWLSGFFSREVQLRWVGPQMTRRVKRHNTVPLSFADGYPYLLANEASLRDLQQRCPASVKMEQFRPNLVVSGASAWEEDRWKVIRIGDVVFDVVKPCSRCIFTTVSPEKGQKHPAGEPLKTLQSFRTAQDNGDVDFGQNLIARNSGVIRVGDEVEILATAPAKIYGAAAADDTANITQQPDANVDIDWQGQAFRGNNQQVLLEQLENQGIRIPYSCRAGICGSCRVQLLEGEVTPLKKSAMGDDGTILCCSCVPKTALKLAR | 5.8 ± 0.31 | 5.98 ± 1.1 | 6.18 ± 1.1 | 5.9 ± 0.56 | 5.39 ± 0.28 | 2.97 ± 0.61 | 6.03 ± 0.76 | 10.1 ± 0.74 | 5.69 ± 0.15 | 10.54 ± 0.032 | 5.71 ± 0.41 | 10.2 ± 1.8
2 | MSDYQMFEVQVSQVEPLTEQVKRFTLVATDGKPLPAFTGGSHVIVQMSDGDNQYSNAYSLLSSPHDTSCYQIAVRLEENSRGGSRFLHQQVKVGDRLTISTPNNLFALIPSARKHLFIAGGIGITPFLSHMAELQHSDVDWQLHYCSRNPESCAFRDELVQHPQAEKVHLHHSSTGTRLELARLLADIEPGTHVYTCGPEALIEAVRSEAARLDIAADTLHFEQFAIEDKTGDAFTLVLARSGKEFVVPEEMTILQVIENNKAAKVECLCREGVCGTCETAILEGEADHRDQYFSDEERASQQSMLICCSRAKGKRLVLDL | – | – | – | – | – | 3.41 | – | – | – | – | – | –
3 | MNKYLKYFSGTLVGLMLSTSAFAAAEYAVVLKTLSNPFWVDMKKGIEDEAKTLGVSVDIFASPSEGDFQSQLQLFEDLSNKNYKGIAFAPLSSVNLVMPVARAWKKGIYLVNLDEKIDMDNLKKAGGNVEAFVTTDNVAVGAKGASFIIDKLGAEGGEVAIIEGKAGNASGEARRNGATEAFKKASQIKLVASQPADWDRIKALDVATNVLQRNPNIKAIYCANDTMAMGVAQAVANAGKTGKVLVVGTDGIPEARKMVEAGQMTATVAQNPADIGATGLKLMVDAEKSGKVIPLDKAPEFKLVDSILVTQ | 4 ± 0.15 | 5.04 ± 0.31 | 5.783 ± 0.043 | 6.64 ± 0.52 | 5.82 ± 0.24 | 3.15 ± 0.034 | 6.52 ± 2 | 9.15 ± 0.44 | 5.9 ± 0.064 | 12.3 ± 0.66 | 5.91 ± 0.37 | 11.3 ± 0.52
4 | MLGWVITCHDDRAQEILDALEKKHGALLQCRAVNFWRGLSSNMLSRMMCDALHEADSGEGVIFLTDIAGAPPYRVASLLSHKHSRCEVISGVTLPLIEQMMACRETMTSSEFRERIVELGAPEVSSLWHQQQKNPPFVLKHNLYEY | 4.15 | – | – | – | – | – | 0.895 | 0.859 | – | – | – | –
5 | MLMITSFANPRVAQAFVDYMATQGVILTIQQHNQSDVWLADESQAERVRAELARFLENPADPRYLAASWQAGHTGSGLHYRRYPFFAALRERAGPVTWVMMIACVVVFIAMQILGDQEVMLWLAWPFDPTLKFEFWRYFTHALMHFSLMHILFNLLWWWYLGGAVEKRLGSGKLIVITLISALLSGYVQQKFSGPWFGGLSGVVYALMGYVWLRGERDPQSGIYLQRGLIIFALIWIVAGWFDLFGMSMANGAHIAGLAVGLAMAFVDSLNARKRK | 5.94 ± 0.09 | 7.254 ± 0.027 | – | – | 4.85 | – | 5.67 | 7.94 | – | 11.7 | 5.84 | 11.6 ± 1.8
6 | MSDWNPSLYLHFSAERSRPAVELLARVPLENVEYVADLGCGPGNSTALLQQRWPAARITGIDSSPAMIAEARSALPDCQFVEADIRNWQPVQALDLIFANASLQWLPDHYELFPHLVSLLNPQGVLAVQMPDNWLEPTHVLMREVAWEQNYPDRGREPLAGVHAYYDILSEAGCEVDIWRTTYYHQMPSHQAIIDWVTATGLRPWLQDLTESEQQLFLKRYHQMLEEQYPLQENGQILLAFPRLFIVARRME | 3.89 ± 0.51 | 5.9 ± 1.7 | 4.82 ± 0.7 | 6.54 ± 1.9 | 3.62 ± 0.042 | 3.29 ± 0.6 | – | 9.97 ± 1.8 | 4.14 ± 0.17 | 4.96 | 5.89 ± 0.061 | 11 ± 0.27
7 | MNGELIWVLSLLAVAIVLFATGRVRMDAVALFVIVAFALSGTLTVPEVFSGFSDPNVVLIAALFIIGDGLVRTGVATVMGTWLVKVAGNSEIKMLVLLMLTVAGLGAFMSSTGVVAIFIPVVLSVAMRMQTSPSRLMMPLSFAGLISGMMTLVATPPNLVVNSELLREGYHGFSFFSVTPIGLVVLVLGILYMLVMRFMLKGDTQTPQREGWTRRTFRDLIREYRLTGRARRLAIRPGSPMIGQRLDDLKLRERYGANVIGVERWRRFRRVIVNVNGVSEFRARDVLLIDMSAADVDLRQFCSEQLLEPMVLRGEYFSDQALDVGMAEISLIPESELIGKSVREIGFRTRYGLNVVGLKRNGVALEGSLADEPLLLGDIILVVGNWKLIGMLAKQGRDFVALNLPEEVSEASPAHSQAPHAIFCLVLMVALMLTDEIPNPVAAIIACLLMGKFRCIDAESAYKSIHWPSIILIVGMMPFAVALQKTGGVALAVKGLMDIGGGYGPHMMLGCLFVLSAVIGLFISNTATAVLMAPIALAAAKTMGVSPYPFAMVVAMAASAAFMTPVSSPVNTLVLGPGNYSFSDFVKLGVPFTIIVMAVCVVMIPMLFPF [P0AFU2] | – | – | 6.68 ± 0.32 | 6.39 ± 0.64 | 6.29 ± 0.45 | > 4 | 5.46 | – | 5.65 ± 1.7 | 12.4 ± 3.2 | > 8 | 12.8 ± 1.7
